Test results as given in patent publication US20260242478A1 (published 2026).

B1: Phage-1653 (peptide)
peptide: TCAAGAHYEWPQCF
B2: Phage-1637 (peptide-92 library clone, SEQ ID NO: 1933) (peptide)
peptide: LCEEFFHYSWPLCL
notes: Tested as clonal phage supernatant
B3: Phage-1662 (peptide)
peptide: LCDQFFHYNWPACL
notes: tested as crude phage supernatant
B4: Phage-1648 (peptide)
peptide: TCSAGATYTWPVCF
B5: Phage-1665 (peptide)
peptide: WCSEVFSYPWPACL
notes: as for B3
B6: Phage-1630 (peptide)
peptide: TCAAGAVWTWPICF
B7: Phage-1661 (peptide)
peptide: MCTAGFSFNWPECL
notes: as for B3
B8: Phage-1643 (peptide-92 library clone, SEQ ID NO: 1939) (peptide)
peptide: SCSAGAGWAWPMCF
notes: as for B2
B9: Phage-1627 (peptide)
peptide: TCAAGATYMWPVCL
B10: Phage-1626 (peptide)
peptide: RCAAGAMWTWPACF
B11: Phage-1655 (peptide)
peptide: TCAAGATWTWPTCM
B12: Phage-1639 (peptide-92 library clone, SEQ ID NO: 1935) (peptide)
peptide: SCAAGAHWSWPVCF
notes: as for B2
B13: Phage-1651 (peptide)
peptide: TCAAGATYSWPSCF
B14: Phage-1628 (peptide)
peptide: SCAAGATWKWPECL
B15: Phage-1646 (peptide-92 library clone, SEQ ID NO: 1942) (peptide)
peptide: TCAAGANYSWPACL
notes: as for B2
B16: Phage-1636 (peptide-92 library clone, SEQ ID NO: 1932) (peptide)
peptide: TCAAGANWPWPECL
notes: as for B2
B17: Phage-1666 (peptide)
peptide: SCTAVFSYALSPCF
notes: as for B3
B18: Phage-1664 (peptide)
peptide: TCSAGASYSWPYCM
notes: as for B3
B19: Phage-1635 (peptide-92 library clone, SEQ ID NO: 1931) (peptide)
peptide: LCAAGATYPWPDCV
notes: as for B2
B20: Phage-1660 (peptide)
peptide: SCAAGAAYAWPWCL
B21: Phage-1656 (peptide)
peptide: PCAAGAQWSWPMCL
B22: Phage-1641 (peptide-92 library clone, SEQ ID NO: 1937) (peptide)
peptide: SCSAGATWAWPQCF
notes: as for B2
B23: Phage-1642 (peptide-92 library clone, SEQ ID NO: 1938) (peptide)
peptide: SCSAVFSYRWPKCL
notes: as for B2
B24: Phage-1631 (peptide)
peptide: TCADGAFWQWPVCL
B25: Phage-1645 (peptide-92 library clone, SEQ ID NO: 1941) (peptide)
peptide: SCADGFNYVWPLCF
notes: as for B2
B26: Phage-1633 (peptide-92 library clone, SEQ ID NO: 1929) (peptide)
peptide: TCSAGATYSWPYCL
notes: as for B2
B27: Phage-1632 (peptide)
peptide: TCSAGASWGWPWCL
B28: Phage-1663 (peptide)
peptide: SCAAVFSFNWPECF
notes: as for B3
B29: Phage-1669 (peptide)
peptide: TCSAGATYKWPTCL
notes: as for B3
B30: Phage-1668 (peptide)
peptide: PCAAGAHYVWPVCF
notes: as for B3
B31: Phage-1654 (peptide)
peptide: TCAAGATYNWPWCF
B32: Phage-1634 (peptide-92 library clone, SEQ ID NO: 1930) (peptide)
peptide: TCSAGATYSWPSCF
notes: as for B2
B33: Phage-1650 (peptide)
peptide: TCSAGATYSWPLCF
B34: Phage-1667 (peptide)
peptide: LCAAVFAYTWPMCF
notes: as for B3
B35: Phage-1640 (peptide-92 library clone, SEQ ID NO: 1936) (peptide)
peptide: LCSAGAMYPWPVCL
notes: as for B2
B36: Phage-1647 (peptide)
peptide: QCAAGATYPWPVCL
B37: Phage-1624 (peptide)
peptide: SCAAGATYSWPACL
B38: Phage-1649 (peptide)
peptide: TCSAGAHYEWPKCL
B39: Phage-1644 (peptide-92 library clone, SEQ ID NO: 1940) (peptide)
peptide: SCAAGFDYGWPMCL
notes: as for B2
B40: Phage-1658 (peptide)
peptide: SCAAGFHYEWPQCF
B41: Phage-1629 (peptide)
peptide: TCAAGATWLWPWCL
B42: Phage-1638 (peptide-92 library clone, SEQ ID NO: 1934) (peptide)
peptide: PCSDGVAYPWPYCV
notes: as for B2
B43: Phage-1625 (peptide)
peptide: NCAAGAMYSWPTCL
B44: Phage-1657 (peptide)
peptide: SCAAGSTWAWPACL
B45: Phage-1659 (peptide)
peptide: SCTAGFRIHWPMCF
B46: Phage-1652 (peptide)
peptide: TCAAGANYAWPVCL

How the values were obtained:
[1] = biological target: T1, Anti-CD28 Fab (SEQ ID NOs: 696, 697); assay: phage binding ELISA on captured Fab; wells pre-incubated with CD28 antigen as competitor
T1 construct: In the phage ELISA the Fab was biotinylated and captured on neutravidin coated plates
T1 sequence (VH, as listed by the source, chain 1 of 2): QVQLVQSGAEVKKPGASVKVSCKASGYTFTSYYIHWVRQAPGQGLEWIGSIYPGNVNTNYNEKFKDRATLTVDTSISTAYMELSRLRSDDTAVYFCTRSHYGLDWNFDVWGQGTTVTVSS
T1 sequence (VL, as listed by the source, chain 2 of 2): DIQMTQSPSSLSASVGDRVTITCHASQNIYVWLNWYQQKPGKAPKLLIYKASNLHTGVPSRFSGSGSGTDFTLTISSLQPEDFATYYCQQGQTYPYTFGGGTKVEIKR
Protocol: (§1) Clonal phage were harvested as crude supematants and screened via standard ELISAs. […] Prior to the addition of clonal phage, wells were incubated with blocking buffer and CD28 antigen or blocking buffer alone. Without washing or aspirating, clonal phage supematants were then added to the wells and incubated for a short time. Wells were then washed followed by detection of bound phage using a horse radish conjugated anti-M13 antibody.

[2] = biological target: T1, Anti-CD28 Fab (SEQ ID NOs: 696, 697); assay: phage binding ELISA; biotinylated Fab on neutravidin plate, clonal phage supernatant, anti-M13 HRP detection
Protocol: (§2) Clonal phage were harvested as crude supematants and screened via standard ELISAs. […] Prior to the addition of clonal phage, wells were incubated with blocking buffer and CD28 antigen or blocking buffer alone. Without washing or aspirating, clonal phage supematants were then added to the wells and incubated for a short time. Wells were then washed followed by detection of bound phage using a horse radish conjugated anti-M13 antibody. Clonal phage of interest were then sent for sequence analysis.

[3] = biological target: Anti-CD28 Fab (SEQ ID NOs: 696, 697); assay: phage binding ELISA on captured anti-CD28 Fab, wells pre-incubated with CD28 antigen as competitor
Target sequence in this assay (VH, as listed by the source, chain 1 of 2): as the sequence (VH, as listed by the source, chain 1 of 2) above
Target sequence in this assay (VL, as listed by the source, chain 2 of 2): as the sequence (VL, as listed by the source, chain 2 of 2) above
Protocol: as §2

[4] = biological target: Anti-CD28 Fab (SEQ ID NOs: 696, 697); assay: phage binding ELISA; biotinylated anti-CD28 Fab on neutravidin plate, clonal phage, anti-M13 HRP detection
Target sequence in this assay (VH, as listed by the source, chain 1 of 2): as the sequence (VH, as listed by the source, chain 1 of 2) above
Target sequence in this assay (VL, as listed by the source, chain 2 of 2): as the sequence (VL, as listed by the source, chain 2 of 2) above
Protocol: as §2

[5] = biological target: T2, Anti-CD28 Fab (SEQ ID NOs: 696, 697); assay: phage binding ELISA on captured Fab; CD28 antigen as competitor
T2 construct: In the phage ELISA the Fab was biotinylated and captured on neutravidin coated plates
T2 sequence (VH, as listed by the source, chain 1 of 2): as the sequence (VH, as listed by the source, chain 1 of 2) above
T2 sequence (VL, as listed by the source, chain 2 of 2): as the sequence (VL, as listed by the source, chain 2 of 2) above
Protocol: as §1

[6] = biological target: T2, Anti-CD28 Fab (SEQ ID NOs: 696, 697); assay: phage binding ELISA; biotinylated Fab on neutravidin plate, anti-M13 HRP detection
Protocol: as §1

[7] = biological target: T3, Anti-CD28 Fab (SEQ ID NOs: 696, 697); assay: phage ELISA; biotinylated anti-CD28 Fab captured on neutravidin plate, clonal phage detected with HRP anti-M13 antibody
T3 construct: In the phage ELISA the Fab was biotinylated and captured on neutravidin coated plates
T3 sequence (VH, as listed by the source, chain 1 of 2): as the sequence (VH, as listed by the source, chain 1 of 2) above
T3 sequence (VL, as listed by the source, chain 2 of 2): as the sequence (VL, as listed by the source, chain 2 of 2) above
Protocol: as §1

[8] = biological target: T3, Anti-CD28 Fab (SEQ ID NOs: 696, 697); assay: phage ELISA on captured anti-CD28 Fab; wells pre-incubated with CD28 antigen as competitor;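 note: clonal phage from crude supernatants added to wells pretreated with blocking buffer with or without CD28, bound phage read by ELISA with HRP-conjugated anti-M13 antibody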
Protocol: as §2

| Binder | Anti-CD28 Fab signal in the presence of CD28 [1] | Anti-CD28 Fab (SEQ ID NOs: 696, 697) signal [2] | Anti-CD28 Fab signal in the presence of CD28 (phage binding ELISA) [3] | Anti-CD28 Fab signal (phage binding ELISA) [4] | further results |
| --- | --- | --- | --- | --- | --- |
| B1 | 0.06 | 1.08 | – | – | – |
| B2 | – | – | 0.06 | 1.21 | – |
| B3 | – | – | – | – | Anti-CD28 Fab signal in the presence of CD28 [5]: 0.05; Anti-CD28 Fab (SEQ ID NOs: 696, 697) signal [6]: 1.04 |
| B4 | 0.06 | 1.13 | – | – | – |
| B5 | – | – | – | – | Anti-CD28 Fab signal in the presence of CD28 [5]: 0.06; Anti-CD28 Fab (SEQ ID NOs: 696, 697) signal [6]: 0.99 |
| B6 | – | – | – | – | Phage binding ELISA, Anti-CD28 Fab signal [7]: 1.23; Phage binding ELISA, Anti-CD28 Fab signal in the presence of CD28 [8]: 0.05 |
| B7 | – | – | – | – | Anti-CD28 Fab signal in the presence of CD28 [5]: 0.07; Anti-CD28 Fab (SEQ ID NOs: 696, 697) signal [6]: 1.05 |
| B8 | – | – | 0.08 | 1.16 | – |
| B9 | – | – | – | – | Phage binding ELISA, Anti-CD28 Fab signal [7]: 1.24; Phage binding ELISA, Anti-CD28 Fab signal in the presence of CD28 [8]: 0.07 |
| B10 | – | – | – | – | Phage binding ELISA, Anti-CD28 Fab signal [7]: 1.25; Phage binding ELISA, Anti-CD28 Fab signal in the presence of CD28 [8]: 0.06 |
| B11 | 0.06 | 1.07 | – | – | – |
| B12 | – | – | 0.08 | 1.2 | – |
| B13 | 0.07 | 1.1 | – | – | – |
| B14 | – | – | – | – | Phage binding ELISA, Anti-CD28 Fab signal [7]: 1.24; Phage binding ELISA, Anti-CD28 Fab signal in the presence of CD28 [8]: 0.07 |
| B15 | – | – | 0.08 | 1.14 | – |
| B16 | – | – | 0.08 | 1.21 | – |
| B17 | – | – | – | – | Anti-CD28 Fab signal in the presence of CD28 [5]: 0.05; Anti-CD28 Fab (SEQ ID NOs: 696, 697) signal [6]: 0.99 |
| B18 | – | – | – | – | Anti-CD28 Fab signal in the presence of CD28 [5]: 0.07; Anti-CD28 Fab (SEQ ID NOs: 696, 697) signal [6]: 1 |
| B19 | – | – | 0.05 | 1.21 | – |
| B20 | 0.07 | 1.05 | – | – | – |
| B21 | 0.09 | 1.07 | – | – | – |
| B22 | – | – | 0.08 | 1.19 | – |
| B23 | – | – | 0.06 | 1.18 | – |

| Binder | Anti-CD28 Fab signal in the presence of CD28 [1] | Anti-CD28 Fab (SEQ ID NOs: 696, 697) signal [2] | Anti-CD28 Fab signal in the presence of CD28 (phage binding ELISA) [3] | Anti-CD28 Fab signal (phage binding ELISA) [4] | further results |
| --- | --- | --- | --- | --- | --- |
| B24 | – | – | – | – | Phage binding ELISA, Anti-CD28 Fab signal [7]: 1.22; Phage binding ELISA, Anti-CD28 Fab signal in the presence of CD28 [8]: 0.07 |
| B25 | – | – | 0.08 | 1.14 | – |
| B26 | – | – | 0.07 | 1.22 | – |
| B27 | – | – | – | – | Phage binding ELISA, Anti-CD28 Fab signal [7]: 1.22; Phage binding ELISA, Anti-CD28 Fab signal in the presence of CD28 [8]: 0.07 |
| B28 | – | – | – | – | Anti-CD28 Fab signal in the presence of CD28 [5]: 0.07; Anti-CD28 Fab (SEQ ID NOs: 696, 697) signal [6]: 1.01 |
| B29 | – | – | – | – | Anti-CD28 Fab signal in the presence of CD28 [5]: 0.07; Anti-CD28 Fab (SEQ ID NOs: 696, 697) signal [6]: 0.97 |
| B30 | – | – | – | – | Anti-CD28 Fab signal in the presence of CD28 [5]: 0.06; Anti-CD28 Fab (SEQ ID NOs: 696, 697) signal [6]: 0.97 |
| B31 | 0.07 | 1.07 | – | – | – |
| B32 | – | – | 0.09 | 1.21 | – |
| B33 | 0.09 | 1.12 | – | – | – |
| B34 | – | – | – | – | Anti-CD28 Fab signal in the presence of CD28 [5]: 0.07; Anti-CD28 Fab (SEQ ID NOs: 696, 697) signal [6]: 0.98 |
| B35 | – | – | 0.08 | 1.19 | – |
| B36 | 0.09 | 1.13 | – | – | – |
| B37 | – | – | – | – | Phage binding ELISA, Anti-CD28 Fab signal [7]: 1.25; Phage binding ELISA, Anti-CD28 Fab signal in the presence of CD28 [8]: 0.07 |
| B38 | 0.07 | 1.12 | – | – | – |
| B39 | – | – | 0.06 | 1.16 | – |
| B40 | 0.06 | 1.06 | – | – | – |
| B41 | – | – | – | – | Phage binding ELISA, Anti-CD28 Fab signal [7]: 1.23; Phage binding ELISA, Anti-CD28 Fab signal in the presence of CD28 [8]: 0.07 |
| B42 | – | – | 0.06 | 1.2 | – |
| B43 | – | – | – | – | Phage binding ELISA, Anti-CD28 Fab signal [7]: 1.25; Phage binding ELISA, Anti-CD28 Fab signal in the presence of CD28 [8]: 0.07 |
| B44 | 0.07 | 1.07 | – | – | – |
| B45 | 0.12 | 1.06 | – | – | – |
| B46 | 0.13 | 1.09 | – | – | – |
